Assay: soluble on expression in E. coli; label from the status in PepcDB or PDB records

Row | Sequence | soluble on expression in E. coli
1 | MGSDKIHHHHHHMISEISHDVIWDLYEGEDYRDKILAEKWDVVFGEKILEMEDTLFVQSLRELELALKYAAARKDLETIKARFNLLLYTPELQGAKIKEILFQVLKFYNSFSIFALVSEKGVHRHAYVDFVTGGNYLSLIYHEDLPLNINSHTVFIDDVPPDFSPAGLGGRKIILGMDSTPKNNIPFVEIPPLRERKMDIPYMLDGVIKSLQFQGKTVKIDDDLTKLLIEYHWPGNTQEFLEKVYEIITLENPVDQAMKIASGIDEIKGLNLKEFVDSLVEFVEKKVIKKALEENEGNRKKVCEVLNMNYKTLSYKMKKYGLT | not soluble
2 | MLYPDTGRRSLVQYLSGSTGEPDGRTENRRMFMDTIGEAVLRSCQPYVRTVFNSVVVLNIMRTTHIVSMDVAHLANISASGQMFNYSLSFLGMKHVILMLWRCW | not soluble
3 | MSLTQLQITAFGDPSVLRLNPSLDKVPADGEVRVRICFAGVNPIDAKTRAGLGWAAAQNKDKLPWTPGYDVAGVVEKIGPGVTALAEGDRVCGMVGFPLAAGGYGESVVAREEELVRLEDIGLRQGAALPLAGLTAWQGLFEHGALKAGQRVLILAGAGGVGHLAVQFASAYGAEVVATASRDNHSFLHGLGASRMVDYHDADWVAQVGQVELVLDLVGGESGKAALACVKPGGRLVTVPTISAQQIKDAAAGSAIEVLGMLVHPDRQQLSQMLTLLRQGEVQVTVAGEYALAEGALAHQAIEQGHVRGKLLLRMPAAEGHHHHHH | soluble
4 | MGSDKIHHHHHHMQIGEVYFWTSTIKDWKNLLHQDKYKLLIIHCLKELVDRKMIKVYAFVIMPNHIHIVWEMLDQNGKEMPHASFNKKTAHEIVKDLKFNHPLVLPFFKVNEKEREYRIWQRDPLAIEMDSKKKAEQKIDYIHKNPLHERWNLAASPEEYYWSSAMYYQTGEDKFGFLTHYMERF | not soluble
5 | MSLSFLYFNDNSKIANAPLKNRFEKTQKESLIIKNNNEDKKAKSKPKFYLIIDDVGYDEFMLEQFIKLNLKITYAIIPFLPKSMSLYKKLKNANKTVIIHFPMQSKHRNSIEKFHINIKDKKEEIHKKIEKAFKKYPDAKIMNNHMGSLITSNKDLMKIILEKLKEIDRYFFDSVTIAGSVPEIIGKEIGVKVEKRDVFLDSKDTEESVTKELEKAKNIARKNGMVKVIGHIWSKNTLKVLKKEGPDLNQEFEFDNLLNLYEETIREGHHHHHH | not soluble

— the DeepSol protein solubility set
